According to US20110171312A1, “MODIFIED THERAPEUTIC PEPTIDES, METHODS OF THEIR PREPARATION AND USE” (Nektar Therapeutics, priority 2008, published 2011):
Like-named read-outs stand apart in the source and are kept apart here.

What was measured:
[1] = Quick release test of releasable PEG-insulin conjugate; assay type: physicochemical; conditions: 100 mM HEPES, pH 8.66, 50° C., approximately 24 hours; gel electrophoresis
Description: The pH was adjusted to 8.66 with 11.0 μL 2 M NaOH. Incubated solution at 50° C. for approximately 24 hours. […] This is slightly lower than the theoretical content of 22.5%. […] Peptide mapping was performed to determine which residue on insulin was modified. […] The purity of the conjugate was 91% mono-conjugate as determined by reverse phase HPLC.

beagle dogs [2] = experiment: PK/PD after IH (powder inhalation) dosing in dogs (Example 26); conditions: for Effect/mg Dosed: AUEC per mg of IH lung dose; for Effect (Glucose Suppression AUEC): lung dose 0.34, 0.6, 2 mg
Description: (§1) The compounds were prepared in accordance with Examples 16 and 18.
(§2) 6 Beagle dogs (˜7-10 kg) were anesthetized in both the IV and IH arms of this study for consistency. Dogs were then given 0.1 mg/kg acepromazine subcutaneously ˜15 minutes prior to 1-5% isoflurane mask induction. Once the appropriate plane of anesthesia was achieved, the pre-shaved neck of the dog was installed with an 18-20 G Abbocath intravenous catheter in the right or left jugular vein and pre-dose sampling was taken. This catheter was used for all blood samplings other than the later time points (16, 20 and 24 hour). Subsequent samples were taken from the cephalic veins.
The formulated control and test articles were delivered by inhalation (IH) via an endotracheal (ET) tube. Ventilator stroke volume was set empirically for each dog to achieve a Peak Mouth Pressure (PMP) of 20-25 cm H2O. A digital manometer (Dwyer Instruments, Michigan City, Ind.) was connected to the ET tube/“Y” connector to monitor PMP. Each blister pack (BP) was delivered with 2 full breathing cycles. No more than 3 BPs were administered during one apneic period. If required to achieve the target administered dose, a second apneic period was induced after an interval of 2 minutes of spontaneous breathing.
Total administered powder as well as estimated inhaled total lung dose were reported.
(§3) Whole blood was used for the glucose measurements. EDTA-anticoagulated plasma was used for compound quantitation assays.
(§4) Quantitation of test and control articles for PK analysis was made with a radio-immuno assay (RIA) conducted at Linco Research, St-Charles, Mo. […] This antiserum was used as the basis of an RIA assay which was then qualified with respect to accuracy, precision, sensitivity, and dilutional linearity. The working range of this assay was 0.15-5 ng/ml. Samples exceeding the upper boundary of this range were diluted in a pool of charcoal-stripped canine plasma.
To calculate the overall glucose suppression, glucose levels were normalized by the equation:
GlucoseSuppression(t)=PredoseGlucoseConcentration−Glucose(t)
The glucose suppression-time profiles were integrated using linear-trapezoidal rule to calculate the area under the effect curve (AUEC).

beagle dogs [3] = conditions: glucose clamp, powder inhalation (FIG. 13a)
Description: The glucose clamp technique involved the continuous infusion of a 50% glucose solution at a rate such that normal serum glucose values were maintained throughout the experiment (e.g., normal range is 80-100 mg/dl).
Glucagon was also infused to maintain normal serum physiologic concentrations. […] Blood was withdrawn from an indwelling catheter over a 10-hour period.

beagle dogs [4] = experiment: PK/PD after IV dosing in dogs (Example 26); conditions: for CMAX: baseline corrected
Description: as §1, §2
The test and control articles were administered by bolus intravenous (IV) injection of a volume of 300 μl into the left cephalic vein using a 22 G 1 inch 1 mL tuberculin syringe.
as §3, §4

[5] = 100 mM acetic acid
Sprague-Dawley rats [6] = experiment: Dose determination and PK/PD after intratracheal instillation (Example 25); assay type: in vivo, rat; conditions: intratracheal
Description: A spectrometric measurement of compound concentration was also made.
Intratracheal Instillation (IT) was conducted as follows.
Sample Collection was performed as follows.
The glucose monitoring was conducted as follows.
The experimental protocol was modified for the analysis of the acetylated compounds. This resulted from the intent to use LC/MS-MS for the quantitation of compound concentrations in plasma. This analytical technique requires a larger volume of plasma to permit concentration of the sample and achieve the requisite increase in sensitivity. […] The protocol was therefore modified to increase the number of animals by two-fold and split the samples between these two cohorts.
To explore the data further, the PK profiles after IT doses were deconvoluted using IV PK parameters using the Wagner Nelson deconvolution procedure, to generate the cumulative absorption profile (FIG. 32).

Sprague-Dawley rats [7] = conditions: rats, intravenous
Description: The first phase established a dose of the compound required to achieve a target blood glucose reduction. This target blood glucose reduction was chosen to be the minimum reduction that is clearly recognizable as different from the resting blood glucose concentration.
The second phase examined the pharmacokinetics/pharmacodynamics of the molecule when administered to rats at the selected dose over an observation time sufficient for the glucose to return to baseline.
These experiments were conducted on male adult Sprague-Dawley rats of approximately 0.30-0.40 kg. Animals were obtained pre-cannulated with a jugular vein catheter (JVC) for blood sampling and, in the case of IV administration, and additional femoral vein catheter (FVC).
Intravenous administration of compounds was made via a femoral catheter in a volume of 300 μl.
Sample Collection was performed as follows. Blood samples of approximately 0.50 mL were collected from the JVC using a 1 mL syringe at each time point. A new syringe was used for each time point along with precautions to prevent contamination and carry-over.
The glucose monitoring was conducted as follows. Approximately 20 μL of whole blood was touched to the end of the glucose test strip of 2 Glucometer Elite glucose monitors for a duplicate determination of blood glucose concentrations. If there was a discrepancy of greater than 5 mg/dl, a third reading was taken.
The sample for compound quantitation in plasma, which served as basis for the PK analysis, was collected and processed as follows. The volume of blood remaining after the glucose measurement (˜480 μL) was anticoagulated with K2 EDTA and centrifuged to recover plasma. The plasma was collected and stored at −80° C. until analysis.

[8] = 14.3/(14.3 + 0.2) * 100%
Description: Concentrations of collected samples were determined using UV spectroscopy, while the integrity analysis of the collected protein was evaluated by HPLC.

[9] = dogs, IV, insulin 0.027, 2K 0.058, 5K 0.084 mg/dog, mean
[10] = dog, in vivo, inhaled or intranasal

G2-PEG2-FMOC-NHS 40K insulin: Example 21: releasable mono-conjugate of insulin with G2-PEG2-FMOC-NHS 40K, site specific (B1)
release of insulin from the PEG [1]: Complete release

Insulin: unmodified human insulin used as control and starting material [reference compound]
time of last quantifiable sample (beagle dogs [2]; dogs, IH, 0.34 mg/dog): 2 h | Effect/mg Dosed (beagle dogs [2]; dogs, IH): 156 | Effect (Glucose Suppression AUEC) (beagle dogs [2]; dogs, IH): 53 | AUC0-LAST (beagle dogs [2]; dogs, IH, lung dose insulin 0.34, 2K 0.60, 5K 2.0 mg/dog, mean): 1.538 ng·h/mL | CMAX (beagle dogs [2]; dogs, IH, lung dose insulin 0.34, 2K 0.60, 5K 2.0 mg/dog, mean, baseline corrected): 1.567 ng/mL | calculated IH bioavailability (beagle dogs [2]; dogs, powder after the ET tube, relative to IV): about 6% | duration for which glucose infusion was necessary (beagle dogs [3]): 300 min | AUC0-LAST (beagle dogs [4]; [9]): 1.822 ng·h/mL | CMAX (beagle dogs [4]; [9]): 9.1 ng/mL | CMAX (beagle dogs [4]; dogs, IV, insulin 0.027, 2K 0.058, 5K 0.084 mg/dog, mean, listed as INSULIN): 9.117 ng/mL | solubility ([5]; pH 4): ~5000 µg/mL | solubility ([5]; pH 4, listed as insulin): up to 5 mg/ml | solubility ([5]; pH 5): less than 1 mg/ml

di-N^αA1,N^εB29-(acetyl)-N^αB1-{3-[methoxy(ethoxy)5K]propionyl}insulin [PEG5000-B1 Di-acetylated insulin]
T1/2 (beagle dogs [2]; dog, in vivo): about 15 HR | T1/2, range across dogs (beagle dogs [2]; dog, in vivo): 6.6 to 51 h | TMAX (beagle dogs [2]; dog, in vivo): about 2.5 HR | Tmax, range across dogs (beagle dogs [2]; dog, in vivo): 1 to 8 h | T1/2 (beagle dogs [2]; [10]): 15.045 h | calculated IH bioavailability (beagle dogs [2]; [10]): about 36% | duration of glucose suppression versus Insulin (beagle dogs [2]; dogs, IH): significantly increased | Effect/mg Dosed (beagle dogs [2]; dogs, IH): 179 | Effect (Glucose Suppression AUEC) (beagle dogs [2]; dogs, IH): 358 | Cmin (minimum blood glucose concentration) (Sprague-Dawley rats [6]; 520 μg/animal (Table 7)): 58 ± 11 mg/dL | Tmin (time to Cmin) (Sprague-Dawley rats [6]; 520 μg/animal (Table 7)): 7.1 ± 6.6 h | time up to which blood glucose is still suppressed (not back to baseline) (Sprague-Dawley rats [6]; selected dose): at least 12 hrs | T1/2 (beagle dogs [4]; beagle, dog, in vivo, iv): 0.755 h | T1/2 (beagle dogs [4]; dog, in vivo, iv): about 0.76 HR | TMAX (beagle dogs [4]; dog, in vivo, iv): 4.8 min | central volume of distribution (Vc) (beagle dogs [4]; dog, in vivo, iv): about 115 mL/kg | overall glucose suppression versus Insulin (beagle dogs [4]; dogs, IV): overall glucose suppressions were similar in terms of maximum suppression and duration of action | dose adequate to reduce blood glucose to the target (40-60 mg/dl) (Sprague-Dawley rats [7]; insulin mass): 20 μg/rat | group mean Cmin (blood glucose nadir), definitive leg (Sprague-Dawley rats [7]; 20 μg/rat (5K di-acetylated), 10 μg/rat (2K di-acetylated)): 54 mg/dL | % Collected as aerosol [8]: 98%^1
